Measurements from article PMC5507626 (Structure (London, England : 1993), 2017).

Key:
[1] = biological target: the molecule itself; experiment: crystal structure
[2] = biological target: the molecule itself; experiment: SEC

B1: TPR(2-142) F113M (domain or fragment, human, UniProt P12270 2-142, looked up)
chain: AAVLQQVLERTELNKLPKSVQNKLEKFLADQQSEIDGLKGRHEKFKVESEQQYFEIEKRLSHSQERLVNETRECQSLRLELEKLNNQLKALTEKNKELEIAQDRNIAIQSQMTRTKEELEAEKRDLIRTNERLSQELEYLT
modifications: selenomethionine (SeMet construct)
stoichiometry N [1]: 4

B2: TPR(2-142) F55M/F113M (domain or fragment, human, UniProt P12270 2-142, looked up)
chain: AAVLQQVLERTELNKLPKSVQNKLEKFLADQQSEIDGLKGRHEKFKVESEQQYMEIEKRLSHSQERLVNETRECQSLRLELEKLNNQLKALTEKNKELEIAQDRNIAIQSQMTRTKEELEAEKRDLIRTNERLSQELEYLT
modifications: selenomethionine (SeMet construct)
stoichiometry N [2]: 4 | stoichiometry N [1]: 2
